Drawing on US5621089, this text covers proteolytic activity (Casein Protease Units, CPU) for one substance.

For the experiment, the target named is casein.

For the substance “PD498 alkaline protease (protease purified from Bacillus sp. PD498, NCIMB No. 40484) (enzyme)”, the proteolytic activity (Casein Protease Units, CPU) amounted to 120 CPU/l.
